From publication PMC11277083 (International Journal of Molecular Sciences, 2024)

Target: ACE2 protein (recombinant human, CUSABIO no. CSB-MP866317HU) (human, UniProt Q9BYF1 18-740)
Assay: SPR; […] (50 ug/mL in sodium acetate pH 4.0, 10 uL/min, 420 s); […]; Biacore T200; […]
Conditions: both partners purified

Chain of ACE2 protein (recombinant human, CUSABIO no. CSB-MP866317HU) (Q9BYF1 18-740): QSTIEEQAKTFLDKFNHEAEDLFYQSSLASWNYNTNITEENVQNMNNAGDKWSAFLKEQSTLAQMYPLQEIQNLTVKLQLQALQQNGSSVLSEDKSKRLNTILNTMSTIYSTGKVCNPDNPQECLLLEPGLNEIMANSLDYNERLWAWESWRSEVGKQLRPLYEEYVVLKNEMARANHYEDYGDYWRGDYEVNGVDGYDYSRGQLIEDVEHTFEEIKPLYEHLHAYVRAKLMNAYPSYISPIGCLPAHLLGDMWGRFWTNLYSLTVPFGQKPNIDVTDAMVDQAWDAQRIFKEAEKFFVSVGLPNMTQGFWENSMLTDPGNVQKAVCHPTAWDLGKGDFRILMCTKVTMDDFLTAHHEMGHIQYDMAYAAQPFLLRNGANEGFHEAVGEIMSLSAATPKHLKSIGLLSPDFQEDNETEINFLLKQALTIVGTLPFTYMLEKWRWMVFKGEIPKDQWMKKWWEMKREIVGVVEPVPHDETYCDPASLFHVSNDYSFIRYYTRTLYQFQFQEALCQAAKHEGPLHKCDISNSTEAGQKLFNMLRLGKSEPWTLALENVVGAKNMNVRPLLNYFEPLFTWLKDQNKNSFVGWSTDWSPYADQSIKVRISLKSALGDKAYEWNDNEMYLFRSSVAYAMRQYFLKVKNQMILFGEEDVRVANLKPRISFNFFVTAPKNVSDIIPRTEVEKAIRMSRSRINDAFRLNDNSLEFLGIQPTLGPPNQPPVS

Binder: KKCHFWPFPW [KKCH peptide]
- Kd: 624 nM
- koff: 0.0958 s⁻¹
- kon: 154000 M⁻¹ s⁻¹
